Reference: patent publication US20140087995A1 (published 2014)
Numbered stars: 1 amine (or outer) side, 2 acyl side, 3 side chain; on linkers, the order of the positions; unused ones are H or OH. Bridge positions count the residues as written; N and C are the ends. Side chains are listed from the residue outwards. Ends that are not written are not given here. * marks the point of attachment. C20 diacid = O=C(O)CCCCCCCCCCCCCCCCCCC(=O)*; γGlu = O=C(O)[C@H](CCC(=O)[*:2])N[*:1]

T1: human amylin receptor (human, UniProt P30988 25-474; O60896 24-148, limits assumed)
T1 construct: whole, on cells; Calcitonin receptor plus RAMP-3 gives the amylin 3(a) receptor; membranes of Amylin 3(a)/CRE-luc cells were used; also called hAmylin-R; hAmylinR
T1 sequence (looked up) 1: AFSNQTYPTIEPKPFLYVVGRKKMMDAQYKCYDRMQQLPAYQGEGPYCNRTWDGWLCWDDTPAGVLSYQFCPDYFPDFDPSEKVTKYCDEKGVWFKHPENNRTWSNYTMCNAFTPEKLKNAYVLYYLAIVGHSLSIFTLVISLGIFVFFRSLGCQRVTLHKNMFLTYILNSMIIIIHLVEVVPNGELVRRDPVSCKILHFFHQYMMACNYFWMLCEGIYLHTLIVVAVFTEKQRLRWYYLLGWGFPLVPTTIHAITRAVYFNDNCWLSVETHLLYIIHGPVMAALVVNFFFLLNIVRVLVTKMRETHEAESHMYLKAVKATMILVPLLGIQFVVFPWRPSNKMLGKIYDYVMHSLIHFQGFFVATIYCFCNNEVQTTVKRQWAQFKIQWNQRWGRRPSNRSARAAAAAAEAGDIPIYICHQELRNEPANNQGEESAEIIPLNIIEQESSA
T1 sequence (looked up) 2: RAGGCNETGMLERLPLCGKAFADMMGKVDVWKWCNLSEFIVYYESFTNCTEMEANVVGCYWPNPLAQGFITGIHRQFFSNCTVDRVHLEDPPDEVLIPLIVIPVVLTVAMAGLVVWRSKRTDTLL


Biological target: T1, human amylin receptor
Test: SPA competition binding, displacement of 125I-rat amylin from membranes with human amylin 3(a) receptor (Assay V)
Summary of the method: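 SPA beads + BHK amylin 3(a)/CRE-luc membranes, 35 ng/μL final; buffer 50 mM Hepes pH 7.4, 1 mM CaCl2, 5 mM MgCl₂, 0.1% OA, 0.02% Tween20. 120 min, 25° C, shaken; scintillation count. IC₅₀ by one-site binding competition fit, taken as receptor affinity.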

| Binder | IC50 |
| --- | --- |
| K([γGlu-C20 diacid])CNTATCATQRLANFLRHSSPNFGAIPSSTNVGRNTY-NH2 (disulfide 2-7; N-terminus assumed; SMILES CC[C@H](C)[C@H](NC(=O)[C@H](C)NC(=O)CNC(=O)[C@H](Cc1ccccc1)NC(=O)[C@H](CC(N)=O)NC(=O)[C@@H]1CCCN1C(=O)[C@H](CO)NC(=O)[C@H](CO)NC(=O)[C@H](Cc1c[nH]cn1)NC(=O)[C@H](CCCNC(=N)N)NC(=O)[C@H](CC(C)C)NC(=O)[C@H](Cc1ccccc1)NC(=O)[C@H](CC(N)=O)NC(=O)[C@H](C)NC(=O)[C@H](CC(C)C)NC(=O)[C@H](CCCNC(=N)N)NC(=O)[C@H](CCC(N)=O)NC(=O)[C@@H](NC(=O)[C@H](C)NC(=O)[C@@H]1CSSC[C@H](NC(=O)[C@@H](N)CCCCNC(=O)CC[C@H](NC(=O)CCCCCCCCCCCCCCCCCCC(=O)O)C(=O)O)C(=O)N[C@@H](CC(N)=O)C(=O)N[C@@H]([C@@H](C)O)C(=O)N[C@@H](C)C(=O)N[C@@H]([C@@H](C)O)C(=O)N1)[C@@H](C)O)C(=O)N1CCC[C@H]1C(=O)N[C@@H](CO)C(=O)N[C@@H](CO)C(=O)N[C@H](C(=O)N[C@@H](CC(N)=O)C(=O)N[C@H](C(=O)NCC(=O)N[C@@H](CCCNC(=N)N)C(=O)N[C@@H](CC(N)=O)C(=O)N[C@H](C(=O)N[C@@H](Cc1ccc(O)cc1)C(N)=O)[C@@H](C)O)C(C)C)[C@@H](C)O, also called 17R, 21P, 27P, 34R) [N^ε1-[(4S)-4-carboxy-4-(19-carboxynonadecanoylamino)butanoyl]-[Arg17,Pro21,Pro27,Arg34]-h-amylin] | 790 pM |
| K([γGlu-C20 diacid])CNTATCATQRLANFLRHSSPNFGAIPSSTNVGSHTY-NH2 (disulfide 2-7; N-terminus assumed; SMILES CC[C@H](C)[C@H](NC(=O)[C@H](C)NC(=O)CNC(=O)[C@H](Cc1ccccc1)NC(=O)[C@H](CC(N)=O)NC(=O)[C@@H]1CCCN1C(=O)[C@H](CO)NC(=O)[C@H](CO)NC(=O)[C@H](Cc1c[nH]cn1)NC(=O)[C@H](CCCNC(=N)N)NC(=O)[C@H](CC(C)C)NC(=O)[C@H](Cc1ccccc1)NC(=O)[C@H](CC(N)=O)NC(=O)[C@H](C)NC(=O)[C@H](CC(C)C)NC(=O)[C@H](CCCNC(=N)N)NC(=O)[C@H](CCC(N)=O)NC(=O)[C@@H](NC(=O)[C@H](C)NC(=O)[C@@H]1CSSC[C@H](NC(=O)[C@@H](N)CCCCNC(=O)CC[C@H](NC(=O)CCCCCCCCCCCCCCCCCCC(=O)O)C(=O)O)C(=O)N[C@@H](CC(N)=O)C(=O)N[C@@H]([C@@H](C)O)C(=O)N[C@@H](C)C(=O)N[C@@H]([C@@H](C)O)C(=O)N1)[C@@H](C)O)C(=O)N1CCC[C@H]1C(=O)N[C@@H](CO)C(=O)N[C@@H](CO)C(=O)N[C@H](C(=O)N[C@@H](CC(N)=O)C(=O)N[C@H](C(=O)NCC(=O)N[C@@H](CO)C(=O)N[C@@H](Cc1c[nH]cn1)C(=O)N[C@H](C(=O)N[C@@H](Cc1ccc(O)cc1)C(N)=O)[C@@H](C)O)C(C)C)[C@@H](C)O, also called 17R, 21P, 27P, 35H) [N^ε1-[(4S)-4-carboxy-4-(19-carboxynonadecanoylamino)butanoyl]-[Arg17,Pro21,Pro27,His35]-h-amylin] | 695 pM |
| K([γGlu-C20 diacid])CNTATCATQRLANFLRHSSPNFGAIPSSTNVGHNTY-NH2 (disulfide 2-7; N-terminus assumed; SMILES CC[C@H](C)[C@H](NC(=O)[C@H](C)NC(=O)CNC(=O)[C@H](Cc1ccccc1)NC(=O)[C@H](CC(N)=O)NC(=O)[C@@H]1CCCN1C(=O)[C@H](CO)NC(=O)[C@H](CO)NC(=O)[C@H](Cc1c[nH]cn1)NC(=O)[C@H](CCCNC(=N)N)NC(=O)[C@H](CC(C)C)NC(=O)[C@H](Cc1ccccc1)NC(=O)[C@H](CC(N)=O)NC(=O)[C@H](C)NC(=O)[C@H](CC(C)C)NC(=O)[C@H](CCCNC(=N)N)NC(=O)[C@H](CCC(N)=O)NC(=O)[C@@H](NC(=O)[C@H](C)NC(=O)[C@@H]1CSSC[C@H](NC(=O)[C@@H](N)CCCCNC(=O)CC[C@H](NC(=O)CCCCCCCCCCCCCCCCCCC(=O)O)C(=O)O)C(=O)N[C@@H](CC(N)=O)C(=O)N[C@@H]([C@@H](C)O)C(=O)N[C@@H](C)C(=O)N[C@@H]([C@@H](C)O)C(=O)N1)[C@@H](C)O)C(=O)N1CCC[C@H]1C(=O)N[C@@H](CO)C(=O)N[C@@H](CO)C(=O)N[C@H](C(=O)N[C@@H](CC(N)=O)C(=O)N[C@H](C(=O)NCC(=O)N[C@@H](Cc1c[nH]cn1)C(=O)N[C@@H](CC(N)=O)C(=O)N[C@H](C(=O)N[C@@H](Cc1ccc(O)cc1)C(N)=O)[C@@H](C)O)C(C)C)[C@@H](C)O, also called 17R, 21P, 27P, 34H) [N^ε1-[(4S)-4-carboxy-4-(19-carboxynonadecanoylamino)butanoyl]-[Arg17,Pro21,Pro27,His34]-h-amylin] | 428 pM |

Now from value to binder:

| IC50 | Binder |
| --- | --- |
| 196 pM | K([γGlu-C20 diacid])CNTATCATQRLADFLRHSSPNFGAIPSSTNVGPETY-NH2 (disulfide 2-7; N-terminus assumed; SMILES CC[C@H](C)[C@H](NC(=O)[C@H](C)NC(=O)CNC(=O)[C@H](Cc1ccccc1)NC(=O)[C@H](CC(N)=O)NC(=O)[C@@H]1CCCN1C(=O)[C@H](CO)NC(=O)[C@H](CO)NC(=O)[C@H](Cc1c[nH]cn1)NC(=O)[C@H](CCCNC(=N)N)NC(=O)[C@H](CC(C)C)NC(=O)[C@H](Cc1ccccc1)NC(=O)[C@H](CC(=O)O)NC(=O)[C@H](C)NC(=O)[C@H](CC(C)C)NC(=O)[C@H](CCCNC(=N)N)NC(=O)[C@H](CCC(N)=O)NC(=O)[C@@H](NC(=O)[C@H](C)NC(=O)[C@@H]1CSSC[C@H](NC(=O)[C@@H](N)CCCCNC(=O)CC[C@H](NC(=O)CCCCCCCCCCCCCCCCCCC(=O)O)C(=O)O)C(=O)N[C@@H](CC(N)=O)C(=O)N[C@@H]([C@@H](C)O)C(=O)N[C@@H](C)C(=O)N[C@@H]([C@@H](C)O)C(=O)N1)[C@@H](C)O)C(=O)N1CCC[C@H]1C(=O)N[C@@H](CO)C(=O)N[C@@H](CO)C(=O)N[C@H](C(=O)N[C@@H](CC(N)=O)C(=O)N[C@H](C(=O)NCC(=O)N1CCC[C@H]1C(=O)N[C@@H](CCC(=O)O)C(=O)N[C@H](C(=O)N[C@@H](Cc1ccc(O)cc1)C(N)=O)[C@@H](C)O)C(C)C)[C@@H](C)O, also called 14D, 17R, 21P, 27P, 34P, 35E) |
| 232 pM | K([γGlu-C20 diacid])CNTATCATQRLAEFLRHSSPNFGAIPSSTNVGRETY-NH2 (disulfide 2-7; N-terminus assumed; SMILES CC[C@H](C)[C@H](NC(=O)[C@H](C)NC(=O)CNC(=O)[C@H](Cc1ccccc1)NC(=O)[C@H](CC(N)=O)NC(=O)[C@@H]1CCCN1C(=O)[C@H](CO)NC(=O)[C@H](CO)NC(=O)[C@H](Cc1c[nH]cn1)NC(=O)[C@H](CCCNC(=N)N)NC(=O)[C@H](CC(C)C)NC(=O)[C@H](Cc1ccccc1)NC(=O)[C@H](CCC(=O)O)NC(=O)[C@H](C)NC(=O)[C@H](CC(C)C)NC(=O)[C@H](CCCNC(=N)N)NC(=O)[C@H](CCC(N)=O)NC(=O)[C@@H](NC(=O)[C@H](C)NC(=O)[C@@H]1CSSC[C@H](NC(=O)[C@@H](N)CCCCNC(=O)CC[C@H](NC(=O)CCCCCCCCCCCCCCCCCCC(=O)O)C(=O)O)C(=O)N[C@@H](CC(N)=O)C(=O)N[C@@H]([C@@H](C)O)C(=O)N[C@@H](C)C(=O)N[C@@H]([C@@H](C)O)C(=O)N1)[C@@H](C)O)C(=O)N1CCC[C@H]1C(=O)N[C@@H](CO)C(=O)N[C@@H](CO)C(=O)N[C@H](C(=O)N[C@@H](CC(N)=O)C(=O)N[C@H](C(=O)NCC(=O)N[C@@H](CCCNC(=N)N)C(=O)N[C@@H](CCC(=O)O)C(=O)N[C@H](C(=O)N[C@@H](Cc1ccc(O)cc1)C(N)=O)[C@@H](C)O)C(C)C)[C@@H](C)O, also called 14E, 17R, 21P, 27P, 34R, 35E) |
| 387 pM | K([γGlu-C20 diacid])CNTATCATQRLAEFLRHSSPNFGAIPSSTNVGHETY-NH2 (disulfide 2-7; N-terminus assumed; SMILES CC[C@H](C)[C@H](NC(=O)[C@H](C)NC(=O)CNC(=O)[C@H](Cc1ccccc1)NC(=O)[C@H](CC(N)=O)NC(=O)[C@@H]1CCCN1C(=O)[C@H](CO)NC(=O)[C@H](CO)NC(=O)[C@H](Cc1c[nH]cn1)NC(=O)[C@H](CCCNC(=N)N)NC(=O)[C@H](CC(C)C)NC(=O)[C@H](Cc1ccccc1)NC(=O)[C@H](CCC(=O)O)NC(=O)[C@H](C)NC(=O)[C@H](CC(C)C)NC(=O)[C@H](CCCNC(=N)N)NC(=O)[C@H](CCC(N)=O)NC(=O)[C@@H](NC(=O)[C@H](C)NC(=O)[C@@H]1CSSC[C@H](NC(=O)[C@@H](N)CCCCNC(=O)CC[C@H](NC(=O)CCCCCCCCCCCCCCCCCCC(=O)O)C(=O)O)C(=O)N[C@@H](CC(N)=O)C(=O)N[C@@H]([C@@H](C)O)C(=O)N[C@@H](C)C(=O)N[C@@H]([C@@H](C)O)C(=O)N1)[C@@H](C)O)C(=O)N1CCC[C@H]1C(=O)N[C@@H](CO)C(=O)N[C@@H](CO)C(=O)N[C@H](C(=O)N[C@@H](CC(N)=O)C(=O)N[C@H](C(=O)NCC(=O)N[C@@H](Cc1c[nH]cn1)C(=O)N[C@@H](CCC(=O)O)C(=O)N[C@H](C(=O)N[C@@H](Cc1ccc(O)cc1)C(N)=O)[C@@H](C)O)C(C)C)[C@@H](C)O, also called 14E, 17R, 21P, 27P, 34H, 35E) |
